Biological target: DENV2 (S-16803) intact virus, E glycoprotein on the virion (dengue virus serotype 2 (S-16803))
Assay: cell-based or functional assay

human monoclonal antibody 2D22
Neut50 value: < 0.2 µg/mL

— US9821050
